Measured values as given in US9062100B2, “Anti-human TROP-2 antibody having anti-tumor activity in vivo” (LIVTECH, INC., dated 2015).
Where no end group is shown, it is not given here.

Columns and labels:
[1] = molecular target: T1, human TROP-2 (hTROP-2) (human); experiment: FACS on PK-59 cells
T1 chain: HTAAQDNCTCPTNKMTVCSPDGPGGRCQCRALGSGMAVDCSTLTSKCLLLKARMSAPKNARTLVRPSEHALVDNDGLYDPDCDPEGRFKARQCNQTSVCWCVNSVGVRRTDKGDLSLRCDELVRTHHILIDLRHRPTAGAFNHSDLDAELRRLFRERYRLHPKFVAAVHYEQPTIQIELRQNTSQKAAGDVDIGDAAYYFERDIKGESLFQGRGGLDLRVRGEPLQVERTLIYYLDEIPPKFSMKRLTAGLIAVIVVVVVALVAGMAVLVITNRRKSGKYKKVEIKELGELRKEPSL

[2] = molecular target: T2, Table 7 peptide No. 23 (human, not fully specified); experiment: PEPSCAN CLIPS peptide ELISA
T2 peptide: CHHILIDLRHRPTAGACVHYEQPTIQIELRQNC

[3] = molecular target: T3, Table 7 peptide No. 11 (human); experiment: PEPSCAN CLIPS peptide ELISA
T3 peptide: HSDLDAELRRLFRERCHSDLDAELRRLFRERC

[4] = molecular target: T4, Table 7 peptide No. 22 (human); experiment: PEPSCAN CLIPS peptide ELISA
T4 peptide: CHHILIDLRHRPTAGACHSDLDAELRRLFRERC

[5] = molecular target: T5, Table 7 peptide No. 1 (human); experiment: PEPSCAN CLIPS peptide ELISA
T5 peptide: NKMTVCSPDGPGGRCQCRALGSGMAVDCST

[6] = molecular target: T6, Table 7 peptide No. 30 (human, not fully specified); experiment: PEPSCAN CLIPS peptide ELISA
T6 peptide: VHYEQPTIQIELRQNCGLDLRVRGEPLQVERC

[7] = molecular target: T7, Table 7 peptide No. 24 (human, not fully specified); experiment: PEPSCAN CLIPS peptide ELISA
T7 peptide: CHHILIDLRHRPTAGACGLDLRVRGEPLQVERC

[8] = molecular target: T8, Table 7 peptide No. 16 (human); experiment: PEPSCAN CLIPS peptide ELISA
T8 peptide: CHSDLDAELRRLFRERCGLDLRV

[9] = molecular target: T9, Table 7 peptide No. 14 (human); experiment: PEPSCAN CLIPS peptide ELISA
T9 peptide: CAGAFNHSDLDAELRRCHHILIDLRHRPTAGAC

[10] = molecular target: T10, Table 7 peptide No. 2 (human); experiment: PEPSCAN CLIPS peptide ELISA
T10 peptide: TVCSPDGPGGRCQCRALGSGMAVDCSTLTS

[11] = molecular target: T11, Table 7 peptide No. 32 (human, not fully specified); experiment: PEPSCAN CLIPS peptide ELISA
T11 peptide: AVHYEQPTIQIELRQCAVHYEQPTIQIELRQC

[12] = molecular target: T12, Table 7 peptide No. 29 (human, not fully specified); experiment: PEPSCAN CLIPS peptide ELISA
T12 peptide: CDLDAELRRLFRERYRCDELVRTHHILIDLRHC

[13] = molecular target: T13, Table 7 peptide No. 6 (human, not fully specified); experiment: PEPSCAN CLIPS peptide ELISA
T13 peptide: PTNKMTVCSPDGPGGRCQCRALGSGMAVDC

[14] = molecular target: T14, Table 7 peptide No. 17 (human); experiment: PEPSCAN CLIPS peptide ELISA
T14 peptide: FQGRGGLDLRVRGEP

[15] = molecular target: T15, Table 7 peptide No. 20 (human); experiment: PEPSCAN CLIPS peptide ELISA
T15 peptide: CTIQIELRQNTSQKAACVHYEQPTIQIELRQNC

[16] = molecular target: T16, Table 7 peptide No. 25 (human, not fully specified); experiment: PEPSCAN CLIPS peptide ELISA
T16 peptide: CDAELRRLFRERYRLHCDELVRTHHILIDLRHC

[17] = molecular target: T17, Table 7 peptide No. 10 (human); experiment: PEPSCAN CLIPS peptide ELISA
T17 peptide: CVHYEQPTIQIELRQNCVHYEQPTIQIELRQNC

[18] = molecular target: T18, Table 7 peptide No. 4 (human, not fully specified); experiment: PEPSCAN CLIPS peptide ELISA
T18 peptide: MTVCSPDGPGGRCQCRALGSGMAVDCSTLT

[19] = molecular target: T19, Table 7 peptide No. 31 (human, not fully specified); experiment: PEPSCAN CLIPS peptide ELISA
T19 peptide: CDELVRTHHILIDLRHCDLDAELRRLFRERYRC

[20] = molecular target: T20, Table 7 peptide No. 33 (human, not fully specified); experiment: PEPSCAN CLIPS peptide ELISA
T20 peptide: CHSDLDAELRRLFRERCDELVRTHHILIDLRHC

[21] = molecular target: T21, Table 7 peptide No. 19 (human); experiment: PEPSCAN CLIPS peptide ELISA
T21 peptide: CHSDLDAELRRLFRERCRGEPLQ

[22] = molecular target: T22, Table 7 peptide No. 8 (human, not fully specified); experiment: PEPSCAN CLIPS peptide ELISA
T22 peptide: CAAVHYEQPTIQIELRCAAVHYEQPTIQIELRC

[23] = molecular target: T23, Table 7 peptide No. 27 (human, not fully specified); experiment: PEPSCAN CLIPS peptide ELISA
T23 peptide: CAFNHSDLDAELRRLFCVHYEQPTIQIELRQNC

[24] = molecular target: T24, Table 7 peptide No. 7 (human, not fully specified); experiment: PEPSCAN CLIPS peptide ELISA
T24 peptide: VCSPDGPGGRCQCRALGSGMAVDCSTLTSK

[25] = molecular target: T25, Table 7 peptide No. 28 (human, not fully specified); experiment: PEPSCAN CLIPS peptide ELISA
T25 peptide: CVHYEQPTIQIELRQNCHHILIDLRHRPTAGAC

[26] = molecular target: T26, Table 7 peptide No. 12 (human); experiment: PEPSCAN CLIPS peptide ELISA
T26 peptide: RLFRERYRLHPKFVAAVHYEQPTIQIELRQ

[27] = molecular target: T27, Table 7 peptide No. 9 (human, not fully specified); experiment: PEPSCAN CLIPS peptide ELISA
T27 peptide: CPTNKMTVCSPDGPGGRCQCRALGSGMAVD

[28] = molecular target: T28, Table 7 peptide No. 13 (human); experiment: PEPSCAN CLIPS peptide ELISA
T28 peptide: AVHYEQPTIQIELRQ

[29] = molecular target: T29, Table 7 peptide No. 26 (human, not fully specified; cysteine pairing not given here); experiment: PEPSCAN CLIPS peptide ELISA
T29 peptide: CVHYEQPTIQIELRQNC

[30] = molecular target: T30, Table 7 peptide No. 18 (human); experiment: PEPSCAN CLIPS peptide ELISA
T30 peptide: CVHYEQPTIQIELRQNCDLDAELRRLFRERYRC

[31] = molecular target: T31, Table 7 peptide No. 3 (human, not fully specified); experiment: PEPSCAN CLIPS peptide ELISA
T31 peptide: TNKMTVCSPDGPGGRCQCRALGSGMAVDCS

[32] = molecular target: T32, Table 7 peptide No. 21 (human); experiment: PEPSCAN CLIPS peptide ELISA
T32 peptide: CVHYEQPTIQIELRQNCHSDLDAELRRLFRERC

[33] = molecular target: T33, Table 7 peptide No. 15 (human); experiment: PEPSCAN CLIPS peptide ELISA
T33 peptide: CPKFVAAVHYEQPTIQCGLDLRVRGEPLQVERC

[34] = molecular target: T34, recombinant protein of the extracellular region of hTROP-2 (human); experiment: ELISA of free antibody after equilibration with antigen in solution
T34 sequence: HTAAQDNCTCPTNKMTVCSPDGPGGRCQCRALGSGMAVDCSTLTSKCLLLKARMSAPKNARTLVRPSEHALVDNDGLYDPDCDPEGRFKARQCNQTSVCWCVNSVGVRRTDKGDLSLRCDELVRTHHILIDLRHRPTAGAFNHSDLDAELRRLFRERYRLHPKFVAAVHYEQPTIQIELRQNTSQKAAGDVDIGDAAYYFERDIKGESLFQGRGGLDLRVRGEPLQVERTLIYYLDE

[35] = molecular target: T1, human TROP-2 (hTROP-2); experiment: FACS on BxPC-3 cells

B1: anti-hTROP-2 monoclonal antibody K5-70 (antibody, V domains shown)
VH: QVQLQQPGAELVRPGASVKLSCKASGYTFTIYWINWVKQRPGQGLEWIGNIYPSDSYTNYNQKFKDKATLTVDKSSSTAYMQLSSPTSEDSAVYYCTRTSMADYWGQGTTLTVSS
VL: DILLTQSPAILSVSPGERVSFSCRASQSIGTSIHWYQQRTNGSPRLLIKYASESISGIPSRFSGSGSGTDFTLSINSVESEDIADYYCQQSNSWPFTFGSGTKLEIK
[1]
  mean fluorescence intensity, times that with PE-labeled anti-mouse IgG only: 44 times
[2]
  binding of K5-70: 489
[3]
  binding of K5-70: 725
[4]
  binding of K5-70: 489
[5]
  binding of K5-70: 2740
[6]
  binding of K5-70: 470
[7]
  binding of K5-70: 488
[8]
  binding of K5-70: 538
[9]
  binding of K5-70: 624
[10]
  binding of K5-70: 2600
[11]
  binding of K5-70: 468
[12]
  binding of K5-70: 472
[13]
  binding of K5-70: 1390
[14]
  binding of K5-70: 538
[15]
  binding of K5-70: 513
[16]
  binding of K5-70: 483
[17]
  binding of K5-70: 825
[18]
  binding of K5-70: 2400
[19]
  binding of K5-70: 469
[20]
  binding of K5-70: 466
[21]
  binding of K5-70: 519
[22]
  binding of K5-70: 876
[23]
  binding of K5-70: 478
[24]
  binding of K5-70: 932
[25]
  binding of K5-70: 473
[26]
  binding of K5-70: 687
[27]
  binding of K5-70: 839
[28]
  binding of K5-70: 642
[29]
  binding of K5-70: 483
[30]
  binding of K5-70: 524
[31]
  binding of K5-70: 2560
[32]
  binding of K5-70: 511
[33]
  binding of K5-70: 579
[34]
  Kd: 6.8 pM
[35]
  mean fluorescence intensity, times that with PE-labeled anti-mouse IgG only: 45 times
